The values that follow come from patent publication US20030148956A1 (PROCTER AND GAMBLE, published 2003).

Ends that are not written are not given here.

The chains are these.
T1: corticotropin releasing factor 2 receptor
T1 sequence (Q13324 whole entry, species assumed, looked up): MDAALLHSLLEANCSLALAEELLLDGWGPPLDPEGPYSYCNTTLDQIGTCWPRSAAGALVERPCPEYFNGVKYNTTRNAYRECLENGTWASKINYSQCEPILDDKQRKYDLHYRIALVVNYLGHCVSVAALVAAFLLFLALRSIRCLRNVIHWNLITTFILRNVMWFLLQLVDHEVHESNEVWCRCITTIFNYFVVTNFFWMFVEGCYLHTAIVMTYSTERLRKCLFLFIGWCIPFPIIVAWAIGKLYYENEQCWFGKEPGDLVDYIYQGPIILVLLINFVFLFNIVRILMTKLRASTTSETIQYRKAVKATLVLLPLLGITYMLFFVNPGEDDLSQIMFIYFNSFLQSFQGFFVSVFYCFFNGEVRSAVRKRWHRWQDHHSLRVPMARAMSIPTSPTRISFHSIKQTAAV

The target of the first test is corticotropin releasing factor 1 receptor. Kind of test: cell-based or functional assay.
As to DNPSLSIDLPLFLLRTLLELEKTQSQRERAEQNARIFDRV-NH2 [SEQ ID NO 336], the “CRF1R EC50” value was determined as 1000 nM and the “CRF1R Emax %” value was 59.9%.

As for PSLSIDLPLLLLRTLLELEKTQSQRERAEQNARIFARV-NH2 [SEQ ID NO 333], the “CRF1R EC50” value is 1000 nM and the “CRF1R Emax %” value came out at 43.8%.

For DNPSLSIDLPLLLLRTLLELEKTQSQRERAEQNAQIFAHV-NH2 [SEQ ID NO 324], the “CRF1R EC50” value amounted to 1000 nM and the “CRF1R Emax %” value is 46.6%.

In the case of IVLSLDVPIGLLQILLEQEKARAAREQATTNARILARV-NH2 [SEQ ID NO 325], the “CRF1R EC50” value was found to be 100 nM and the “CRF1R Emax %” value is 5%.

DNPSLSIDLPLLLLRTLLELEKTQSQRERAEQNAQIFAQV-NH2 [SEQ ID NO 327]: the “CRF1R EC50” value is 1000 nM and the “CRF1R Emax %” value came out at 36.5%.

As to DNPSLSIDLPLQLLRTLLELEKTQSQRERAEQNAIIFASV-NH2 [SEQ ID NO 342], the “CRF1R EC50” value was determined as 1000 nM and the “CRF1R Emax %” value was found to be 19.6%.

For Ac-DNPSLSIDLPLLLLRTLLELEKTQSQRERAEQNAIIFASV-NH2 [SEQ ID NO 347], the “CRF1R EC50” value turned out to be 1000 nM.

For the molecule DNPSLSIDLPLLLLRTLLELEKTQSQRERAEQNAHIFAHV-NH2 [SEQ ID NO 328], the “CRF1R EC50” value is 1000 nM and the “CRF1R Emax %” value came to 30.7%.

Turning to DNPSLSIDLPLILLRTLLELARTQSQRERAEQNARIFARV-NH2 [SEQ ID NO 330], the “CRF1R EC50” value is 1000 nM and the “CRF1R Emax %” value turned out to be 86.8%.

Regarding DNPSLSIDLPLFLLRTLLELEKTQSQRERAEQNARIFARV-NH2 [SEQ ID NO 334], the “CRF1R EC50” value is 1000 nM and the “CRF1R Emax %” value is 82.6%.

Turning to DNPSLSIDLPLLLLRTLLELEKTQSQRERAEQNARIFARV-NH2 [SEQ ID NO 341], the “CRF1R EC50” value came out at 850 nM and the “CRF1R Emax %” value worked out at 82.3%.

With PSLSIDLPLILLRTLLELEKTQSQRERAEQNARIFARV-NH2 [SEQ ID NO 332], the “CRF1R EC50” value stood at 1000 nM and the “CRF1R Emax %” value came to 61.3%.

As for DNPSLSIDLPLLLLRTLLELARTQSQRERAEQNARIFARV-NH2 [SEQ ID NO 340], the “CRF1R EC50” value stood at 740 nM and the “CRF1R Emax %” value came to 96%.

For DNPSLSIDLPLFLLRTLLELEKTQSQRERAEQNAIIFASV-NH2 [SEQ ID NO 343], the “CRF1R EC50” value was determined as 783 nM and the “CRF1R Emax %” value turned out to be 62.5%.

For IVLSLDVPIGLLQKMIEIEKQEKEKQQATTNARILARV-NH2 [SEQ ID NO 322], the “CRF1R EC50” value was determined as 1000 nM and the “CRF1R Emax %” value is 10.7%.

As to PSLSIDLPLFLLRTLLELEKTQSQRERAEQNARIFARV-NH2 [SEQ ID NO 331], the “CRF1R EC50” value was determined as 1000 nM and the “CRF1R Emax %” value was 78.7%.

The next test deals with T1, corticotropin releasing factor 2 …. The test is described as follows: cell-based or functional assay.
For DNPSLSIDLPLFLLRTLLELEKTQSQRERAEQNARIFDRV-NH2 [SEQ ID NO 336], the “CRF2R EC50” value was 17.8 nM and the “CRF2R Emax %” value worked out at 100%.

Consider PSLSIDLPLLLLRTLLELEKTQSQRERAEQNARIFARV-NH2 [SEQ ID NO 333], for which the “CRF2R EC50” value worked out at 9.85 nM and the “CRF2R Emax %” value came out at 96.9%.

For DNPSLSIDLPLLLLRTLLELEKTQSQRERAEQNAQIFAHV-NH2 [SEQ ID NO 324], the “CRF2R EC50” value was found to be 17.2 nM and the “CRF2R Emax %” value stood at 100%.

For the molecule IVLSLDVPIGLLQILLEQEKARAAREQATTNARILARV-NH2 [SEQ ID NO 325], the “CRF2R EC50” value worked out at 11.7 nM and the “CRF2R Emax %” value was 100%.

Take DNPSLSIDLPLLLLRTLLELEKTQSQRERAEQNAQIFAQV-NH2 [SEQ ID NO 327]: the “CRF2R EC50” value is 28.4 nM and the “CRF2R Emax %” value was 100%.

Consider DNPSLSIDLPLQLLRTLLELEKTQSQRERAEQNAIIFASV-NH2 [SEQ ID NO 342], for which the “CRF2R EC50” value amounted to 20.2 nM and the “CRF2R Emax %” value is 92.2%.

Regarding Ac-DNPSLSIDLPLLLLRTLLELEKTQSQRERAEQNAIIFASV-NH2 [SEQ ID NO 347], the “CRF2R EC50” value came to 22.4 nM.

As to DNPSLSIDLPLLLLRTLLELEKTQSQRERAEQNAHIFAHV-NH2 [SEQ ID NO 328], the “CRF2R EC50” value turned out to be 11.7 nM and the “CRF2R Emax %” value amounted to 95.7%.

Consider DNPSLSIDLPLILLRTLLELARTQSQRERAEQNARIFARV-NH2 [SEQ ID NO 330], for which the “CRF2R EC50” value stood at 6 nM and the “CRF2R Emax %” value is 93.7%.

For the molecule DNPSLSIDLPLFLLRTLLELEKTQSQRERAEQNARIFARV-NH2 [SEQ ID NO 334], the “CRF2R EC50” value came to 13.2 nM and the “CRF2R Emax %” value came to 93.5%.

DNPSLSIDLPLLLLRTLLELEKTQSQRERAEQNARIFARV-NH2 [SEQ ID NO 341]: the “CRF2R EC50” value is 8.83 nM and the “CRF2R Emax %” value is 95.5%.

PSLSIDLPLILLRTLLELEKTQSQRERAEQNARIFARV-NH2 [SEQ ID NO 332]: the “CRF2R EC50” value amounted to 9.95 nM and the “CRF2R Emax %” value amounted to 100%.

DNPSLSIDLPLLLLRTLLELARTQSQRERAEQNARIFARV-NH2 [SEQ ID NO 340]: the “CRF2R EC50” value stood at 7.99 nM and the “CRF2R Emax %” value is 100%.

DNPSLSIDLPLFLLRTLLELEKTQSQRERAEQNAIIFASV-NH2 [SEQ ID NO 343]: the “CRF2R EC50” value is 13.6 nM and the “CRF2R Emax %” value was 96.5%.

Consider IVLSLDVPIGLLQKMIEIEKQEKEKQQATTNARILARV-NH2 [SEQ ID NO 322], for which the “CRF2R EC50” value came out at 23.1 nM and the “CRF2R Emax %” value was 96.5%.

Take PSLSIDLPLFLLRTLLELEKTQSQRERAEQNARIFARV-NH2 [SEQ ID NO 331]: the “CRF2R EC50” value amounted to 9.85 nM and the “CRF2R Emax %” value is 100%.
